How the values were obtained:
[1] = target: chimera with the ECD of mGluR2 and the TMD (and C-terminal) of mGluR1 (rat); test: single molecule subunit counting
[2] = target: chimera with the ECD of mGluR2 and the TMD (and C-terminal) of mGluR1 (rat); test: single molecule pull-down
[3] = target: full length HA-mGluR2 (rat) (UniProt P31421); test: co-IP
[4] = target: chimera with the ECD of mGluR1 and the TMD (and C-terminal) of mGluR2 (rat); test: single molecule subunit counting
[5] = target: chimera with the ECD of mGluR1 and the TMD (and C-terminal) of mGluR2 (rat); test: single molecule pull-down
[6] = target: mGluR2-GFP truncated by removing the entire extracellular domain (rat); test: single molecule pull-down

full length HA-mGluR2 (rat), sequence (P31421 19-872): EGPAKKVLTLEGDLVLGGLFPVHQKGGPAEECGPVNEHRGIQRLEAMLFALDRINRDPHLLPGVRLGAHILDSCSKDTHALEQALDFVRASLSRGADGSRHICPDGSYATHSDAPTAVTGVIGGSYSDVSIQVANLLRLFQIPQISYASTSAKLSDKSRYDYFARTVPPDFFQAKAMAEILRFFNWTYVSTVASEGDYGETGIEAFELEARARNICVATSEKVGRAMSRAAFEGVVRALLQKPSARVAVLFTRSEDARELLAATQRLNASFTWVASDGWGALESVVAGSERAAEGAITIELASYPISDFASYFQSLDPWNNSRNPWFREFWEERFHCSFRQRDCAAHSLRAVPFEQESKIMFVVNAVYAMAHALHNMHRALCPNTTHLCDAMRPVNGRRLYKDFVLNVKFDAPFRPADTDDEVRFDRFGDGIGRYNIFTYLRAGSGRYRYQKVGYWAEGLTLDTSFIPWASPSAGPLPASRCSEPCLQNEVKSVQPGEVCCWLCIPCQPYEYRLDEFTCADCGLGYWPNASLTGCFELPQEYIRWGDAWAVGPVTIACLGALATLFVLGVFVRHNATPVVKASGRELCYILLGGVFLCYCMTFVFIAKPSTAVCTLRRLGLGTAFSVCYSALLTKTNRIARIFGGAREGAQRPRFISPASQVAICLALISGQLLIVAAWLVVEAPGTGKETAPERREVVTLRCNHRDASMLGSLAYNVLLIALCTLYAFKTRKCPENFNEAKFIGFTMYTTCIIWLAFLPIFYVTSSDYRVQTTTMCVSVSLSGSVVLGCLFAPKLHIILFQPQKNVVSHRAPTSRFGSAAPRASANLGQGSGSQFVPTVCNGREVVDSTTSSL
mGluR2-GFP truncated by removing the entire extracellular domain (domain or fragment), sequence (P31421 19-872): as above
GFP-tagged isolated ligand binding domain of mGluR2 (domain or fragment), sequence (P31421 19-872): as above

Which results are given for “chimera with the ECD of mGluR2 and the TMD (and C-terminal) of mGluR1 (receptor)”?
stoichiometry N [1]: 2; stoichiometry N [2]: 2

For “GFP-tagged isolated ligand binding domain of mGluR2 (domain or fragment)”, which percent of spots bleaching in a single step [3] is on record?
The percent of spots bleaching in a single step was 92.4%.

What does the source list for “chimera with the ECD of mGluR1 and the TMD (and C-terminal) of mGluR2 (receptor)”?
stoichiometry N [4]: 2; stoichiometry N [5]: 2

“mGluR2-GFP truncated by removing the entire extracellular domain (domain or fragment)” was tested. Which percent of spots bleaching in a single step [3] did it give?
Its percent of spots bleaching in a single step is 89.6%.

What about the percent of spots bleaching in two steps [6] of the same substance?
The percent of spots bleaching in two steps was 30%.

From publication PMC5053906
